In paper doi:10.1101/2025.09.10.675378 (bioRxiv, 2025):

Biological target: the molecule itself
Assay: native MS

B1: hDVL3 PDZ-IDR2-DEP (aa 243-496) (domain or fragment)
chain: MSLNIITVTLNMEKYNFLGISIVGQSNERGDGGIYIGSIMKGGAVAADGRIEPGDMLLQVNEINFENMSNDDAVRVLREIVHKPGPITLTVAKCWDPSPRGCFTLPRSEPIRPIDPAAWVSHTAAMTGTFPAYGMSPSLSTITSTSSSITSSIPDTERLDDFHLSIHSDMAAIVKAMASPESGLEVRDRMWLKITIPNAFIGSDVVDWLYHNVEGFTDRREARKYASNLLKAGFIRHTVNKITFSEQCYYIFGD
B1: binds.

B2: phosphorylated hDVL3 PDZ-IDR2-DEP (PDZ-pIDR2-DEP, aa 243-496) (domain or fragment)
chain: B1 chain
modifications: 8-19 phosphates on S/T residues of IDR2 (native ESI-MS), added by CK1ε
B2: binds.
